T1: EsCas13d, nuclease-dead (Eubacterium siraeum, UniProt B0MS50, R295A;H300A;R849A;H854A)
T1 sequence: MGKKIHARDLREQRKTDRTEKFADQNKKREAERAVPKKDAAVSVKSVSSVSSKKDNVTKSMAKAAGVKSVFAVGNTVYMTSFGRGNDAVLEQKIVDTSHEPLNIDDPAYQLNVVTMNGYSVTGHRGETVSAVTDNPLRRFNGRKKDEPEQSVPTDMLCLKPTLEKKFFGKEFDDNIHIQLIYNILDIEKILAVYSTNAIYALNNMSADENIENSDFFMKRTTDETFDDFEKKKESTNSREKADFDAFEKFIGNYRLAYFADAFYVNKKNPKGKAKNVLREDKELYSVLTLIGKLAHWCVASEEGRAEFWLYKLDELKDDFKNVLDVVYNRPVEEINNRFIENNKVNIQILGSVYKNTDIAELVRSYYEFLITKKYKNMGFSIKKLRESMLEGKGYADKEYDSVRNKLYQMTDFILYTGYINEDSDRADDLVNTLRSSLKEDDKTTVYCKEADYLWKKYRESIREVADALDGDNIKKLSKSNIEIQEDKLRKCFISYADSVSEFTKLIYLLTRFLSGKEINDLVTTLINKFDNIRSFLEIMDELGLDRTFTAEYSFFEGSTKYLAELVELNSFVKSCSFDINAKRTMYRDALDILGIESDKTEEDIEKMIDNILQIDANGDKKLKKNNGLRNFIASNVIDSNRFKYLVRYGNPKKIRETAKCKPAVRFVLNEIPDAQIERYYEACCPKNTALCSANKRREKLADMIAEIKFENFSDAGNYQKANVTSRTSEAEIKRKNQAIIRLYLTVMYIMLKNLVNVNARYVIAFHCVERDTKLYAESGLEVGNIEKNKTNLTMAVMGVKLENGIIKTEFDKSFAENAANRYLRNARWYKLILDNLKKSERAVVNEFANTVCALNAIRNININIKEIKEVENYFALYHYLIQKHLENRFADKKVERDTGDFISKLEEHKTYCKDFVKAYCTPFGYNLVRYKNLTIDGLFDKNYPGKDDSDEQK


Target: T1, EsCas13d, nuclease-dead
Assay: crRNA (strand 1, pre-loaded); Mg2+; 40 mM Tris-HCl pH 7.5, 150 mM NaCl, 6 mM MgCl2, 1 mM DTT, 0.1% Tween-20, 0.2 mg/ml BSA; 25 C; 10 min per concentration, then washed
Conditions: tags: His6-TwinStrep-SUMO cleaved; N-terminal SNAP kept (SNAP-Surface 488); label: 3' end held by stalled T7 RNA polymerase

Row | Binder | Kd
1 | target 1 A16G,C22A (mixed) RNA 1: CACCCGUGCAAAAAUGCAGGGGUCUAAAACUGAGCGGAUAACCUCUCUAUGG RNA 2: GGGAAUGGAUCCACAUCUACGAAUUCGUAACAUAGGGAGGUUAUCCGCUCACCGAGAUCGGAAGAGCACACGU | 51 ± 10 nM
2 | target 1 insU 3' of 22,insU 3' of 12 (mixed) RNA 1: CACCCGUGCAAAAAUGCAGGGGUCUAAAACUGAGCGGAUAACCUCUCUAUGG RNA 2: GGGAAUGGAUCCACAUCUACGAAUUCGUACUCAUAGAGAGGUUUAUCCGCUCACCGAGAUCGGAAGAGCACACGU | 26.9 ± 1.6 nM
3 | target 1 insU 3' of 15,insA 3' of 7 (mixed) RNA 1: CACCCGUGCAAAAAUGCAGGGGUCUAAAACUGAGCGGAUAACCUCUCUAUGG RNA 2: GGGAAUGGAUCCACAUCUACGAAUUCGUACCAUAGAGUAGGUUAUCACGCUCACCGAGAUCGGAAGAGCACACGU | 8.2 ± 0.6 nM
4 | target 1 G17A,C21A (mixed) RNA 1: CACCCGUGCAAAAAUGCAGGGGUCUAAAACUGAGCGGAUAACCUCUCUAUGG RNA 2: GGGAAUGGAUCCACAUCUACGAAUUCGUACAAUAAAGAGGUUAUCCGCUCACCGAGAUCGGAAGAGCACACGU | 56 ± 7 nM
5 | target 1 insC 3' of 17,insU 3' of 7 (mixed) RNA 1: CACCCGUGCAAAAAUGCAGGGGUCUAAAACUGAGCGGAUAACCUCUCUAUGG RNA 2: GGGAAUGGAUCCACAUCUACGAAUUCGUACCAUAGCAGAGGUUAUCUCGCUCACCGAGAUCGGAAGAGCACACGU | 57 ± 6 nM
6 | target 1 C7G,A16C (mixed) RNA 1: CACCCGUGCAAAAAUGCAGGGGUCUAAAACUGAGCGGAUAACCUCUCUAUGG RNA 2: GGGAAUGGAUCCACAUCUACGAAUUCGUACCAUAGCGAGGUUAUGCGCUCACCGAGAUCGGAAGAGCACACGU | 63 ± 6 nM
7 | target 1 A14G,U19C (mixed) RNA 1: CACCCGUGCAAAAAUGCAGGGGUCUAAAACUGAGCGGAUAACCUCUCUAUGG RNA 2: GGGAAUGGAUCCACAUCUACGAAUUCGUACCACAGAGGGGUUAUCCGCUCACCGAGAUCGGAAGAGCACACGU | 63 ± 14 nM
8 | target 1 U3G,A9U (mixed) RNA 1: CACCCGUGCAAAAAUGCAGGGGUCUAAAACUGAGCGGAUAACCUCUCUAUGG RNA 2: GGGAAUGGAUCCACAUCUACGAAUUCGUACCAUAGAGAGGUUUUCCGCGCACCGAGAUCGGAAGAGCACACGU | 7.5 ± 0.7 nM
9 | target 1 C4A,C7G (mixed) RNA 1: CACCCGUGCAAAAAUGCAGGGGUCUAAAACUGAGCGGAUAACCUCUCUAUGG RNA 2: GGGAAUGGAUCCACAUCUACGAAUUCGUACCAUAGAGAGGUUAUGCGAUCACCGAGAUCGGAAGAGCACACGU | 9.6 ± 0.4 nM
10 | target 1 insC 3' of 18,insU 3' of 4 (mixed) RNA 1: CACCCGUGCAAAAAUGCAGGGGUCUAAAACUGAGCGGAUAACCUCUCUAUGG RNA 2: GGGAAUGGAUCCACAUCUACGAAUUCGUACCAUACGAGAGGUUAUCCGCUUCACCGAGAUCGGAAGAGCACACGU | 25.8 ± 1.8 nM
11 | target 1 U3A,G5U (mixed) RNA 1: CACCCGUGCAAAAAUGCAGGGGUCUAAAACUGAGCGGAUAACCUCUCUAUGG RNA 2: GGGAAUGGAUCCACAUCUACGAAUUCGUACCAUAGAGAGGUUAUCCUCACACCGAGAUCGGAAGAGCACACGU | 14.4 ± 1 nM
12 | target 1 insC 3' of 20,insC 3' of 11 (mixed) RNA 1: CACCCGUGCAAAAAUGCAGGGGUCUAAAACUGAGCGGAUAACCUCUCUAUGG RNA 2: GGGAAUGGAUCCACAUCUACGAAUUCGUACCACUAGAGAGGUCUAUCCGCUCACCGAGAUCGGAAGAGCACACGU | 11.2 ± 1.1 nM
13 | target 1 C6A,G12U (mixed) RNA 1: CACCCGUGCAAAAAUGCAGGGGUCUAAAACUGAGCGGAUAACCUCUCUAUGG RNA 2: GGGAAUGGAUCCACAUCUACGAAUUCGUACCAUAGAGAGUUUAUCAGCUCACCGAGAUCGGAAGAGCACACGU | 10.7 ± 0.5 nM
14 | target 1 insG 3' of 9,insU 3' of 4 (mixed) RNA 1: CACCCGUGCAAAAAUGCAGGGGUCUAAAACUGAGCGGAUAACCUCUCUAUGG RNA 2: GGGAAUGGAUCCACAUCUACGAAUUCGUACCAUAGAGAGGUUAGUCCGCUUCACCGAGAUCGGAAGAGCACACGU | 12.2 ± 0.4 nM
15 | target 1 C4U,C7A (mixed) RNA 1: CACCCGUGCAAAAAUGCAGGGGUCUAAAACUGAGCGGAUAACCUCUCUAUGG RNA 2: GGGAAUGGAUCCACAUCUACGAAUUCGUACCAUAGAGAGGUUAUACGUUCACCGAGAUCGGAAGAGCACACGU | 11.2 ± 0.8 nM
16 | target 1 insU 3' of 14,insG 3' of 2 (mixed) RNA 1: CACCCGUGCAAAAAUGCAGGGGUCUAAAACUGAGCGGAUAACCUCUCUAUGG RNA 2: GGGAAUGGAUCCACAUCUACGAAUUCGUACCAUAGAGAUGGUUAUCCGCUCGACCGAGAUCGGAAGAGCACACGU | 44 ± 7 nM
17 | target 1 insU 3' of 20,insG 3' of 8 (mixed) RNA 1: CACCCGUGCAAAAAUGCAGGGGUCUAAAACUGAGCGGAUAACCUCUCUAUGG RNA 2: GGGAAUGGAUCCACAUCUACGAAUUCGUACCAUUAGAGAGGUUAUGCCGCUCACCGAGAUCGGAAGAGCACACGU | 20.4 ± 1.6 nM
18 | target 1 insA 3' of 11,insG 3' of 8 (mixed) RNA 1: CACCCGUGCAAAAAUGCAGGGGUCUAAAACUGAGCGGAUAACCUCUCUAUGG RNA 2: GGGAAUGGAUCCACAUCUACGAAUUCGUACCAUAGAGAGGUAUAUGCCGCUCACCGAGAUCGGAAGAGCACACGU | 35.6 ± 2.3 nM
19 | target 1 G15A,A16G (mixed) RNA 1: CACCCGUGCAAAAAUGCAGGGGUCUAAAACUGAGCGGAUAACCUCUCUAUGG RNA 2: GGGAAUGGAUCCACAUCUACGAAUUCGUACCAUAGGAAGGUUAUCCGCUCACCGAGAUCGGAAGAGCACACGU | 51 ± 5 nM
20 | target 1 insC 3' of 12,insG 3' of 8 (mixed) RNA 1: CACCCGUGCAAAAAUGCAGGGGUCUAAAACUGAGCGGAUAACCUCUCUAUGG RNA 2: GGGAAUGGAUCCACAUCUACGAAUUCGUACCAUAGAGAGGCUUAUGCCGCUCACCGAGAUCGGAAGAGCACACGU | 15 ± 0.6 nM
21 | target 1 del8,del11 (mixed) RNA 1: CACCCGUGCAAAAAUGCAGGGGUCUAAAACUGAGCGGAUAACCUCUCUAUGG RNA 2: GGGAAUGGAUCCACAUCUACGAAUUCGUACCAUAGAGAGGUACCGCUCACCGAGAUCGGAAGAGCACACGU | 25.7 ± 1.7 nM
22 | target 1 insC 3' of 14,insG 3' of 2 (mixed) RNA 1: CACCCGUGCAAAAAUGCAGGGGUCUAAAACUGAGCGGAUAACCUCUCUAUGG RNA 2: GGGAAUGGAUCCACAUCUACGAAUUCGUACCAUAGAGACGGUUAUCCGCUCGACCGAGAUCGGAAGAGCACACGU | 62 ± 23 nM
23 | target 1 insG 3' of 14,insC 3' of 9 (mixed) RNA 1: CACCCGUGCAAAAAUGCAGGGGUCUAAAACUGAGCGGAUAACCUCUCUAUGG RNA 2: GGGAAUGGAUCCACAUCUACGAAUUCGUACCAUAGAGAGGGUUACUCCGCUCACCGAGAUCGGAAGAGCACACGU | 12.7 ± 0.6 nM
24 | target 1 insC 3' of 17,insA 3' of 10 (mixed) RNA 1: CACCCGUGCAAAAAUGCAGGGGUCUAAAACUGAGCGGAUAACCUCUCUAUGG RNA 2: GGGAAUGGAUCCACAUCUACGAAUUCGUACCAUAGCAGAGGUUAAUCCGCUCACCGAGAUCGGAAGAGCACACGU | 43.2 ± 3.4 nM
